Assay [1] deals with T1, mouse CCK-B receptor peptide (custom 15-amino-acid extracellular mouse sequence) (Mus musculus, UniProt P56481).
T1 chain: CETPRIRGTGTRELE

For assay [2], the target named is T1, mouse CCK-B receptor peptide (custom …). As to the kind of experiment: ELISA; indirect ELISA of the scFvs on CCK-B receptor peptide, concentration-dependent; apparent affinity; methods in the supplementary section. The note with it: both partners purified.
Assay [3] has the same target. Kind of assay: not stated.
Assay [4] addresses T2, mouse CCK-B receptor peptide (custom 15-amino-acid extracellular mouse sequence) (mouse).
T2 chain: CETPRIRGTGTRELE
As to the kind of experiment: BLI.

Assay [5] deals with T1, mouse CCK-B receptor peptide (custom …). As to the kind of experiment: BLI; Octet RED384 instrument; scFv77-2 and mouse CCK-B peptide. The settings on record: both partners purified.

Like-named read-outs stand apart in the source and are kept apart here.

B1: CCK-BR_scFv11-2 (antibody, V domains shown)
VH: QVQLKQSGAELVRPGSSVKISCKASGYAFTNYLIEWVKQRPGQGLEWIGQIYPGDGDTNYNGKFKGKATLTVDNSSSTAYMELRSLTSEDSAVYYCARAATWYYAMDYWGQGTSVTVSS
VL: QIVLTQSPAIMSASPGEKVTITCSASSSVSYMHWFQQKPGTSPKLWIYSTSNLASGVPARFSGSGSGTSYSLTISSMEAEDAASYFCHQWSSYPWTFGGGTKLEIK
As to B1, in assay [1], the binding result is reported as “binds”.

B2: CCK-B scFv134-1 antibody (scFv, V domains shown)
VH: EVQLQQSGAELVKPGASVKMSCKASGYTFTDYWMHWVKQRPGQGLEWIGAIDTSDSYTSYNQKFKGKATLTVDKSSSTAYIQLSSLTSEDSAVYYCARSEGYLPFDYWGQGTTLTVSS
VL: DVVMTQTPLSLPVSFGDQVSISCRSSQSLANSYGNTYLSWYLHKPGQSPQLLIYGISNRFSGVPDRFSGSGSGTDFTLKISTIKPEDLGMYYCLQGTHQPRTFGGGTKLEIK
notes: VH of scFv134-1; 20-amino-acid flexible linker, printed as the formula [(G4S)4] and written out from it; VL of scFv134-1; One of the panel of 7 anti-CCK-B receptor scFvs; Construct and methods are in the supplementary section; source: E. coli cytoplasm (pET32a expression vector), purified
As for B2, in assay [2], the binding result is given as “binds”.

B3: CCK-BR_scFv13-3 (antibody, V domains shown)
VH: EVQLQQSGAELVKPGASVKMSCKASGYTFTSYWMHWVKQRPGQGLEWIGYINPSTGYTEYNQKFKDKATLTADKSSSTAYMQLSSLTSEDSAVYYCAGDNYGYWYFDVWGAGTTVTVSS
VL: DIVMTQSPSSLSVSAGEKVTMSCKSSQSLLNSGNQKNYLAWYQQKPGQPPKLLIYGASTRESGVPDRFTGSGSGTDFTLTISSVQAEDLAVYYCQNDHSYPYTFGGGTKLEIK
As to B3, the binding result in assay [1] was “binds”.

B4: CCK-B scFv77-2 antibody (scFv, V domains shown)
VH: EVQLQQSGAELVRSGASVKLSCTASGFNIKDYYIHWVKQRPEQGLEWIGWIDPENGDTEYAPKFQGKATMTADTSSNTAYLQLSSLTSEDTAVYYCNAGGRFAYWGQGTLVTVSA
VL: DIVMTQSPSSLSVSAGEKVTMSCKSSQSLLNSGNQKNYLAWYQQKPGQPPKLLIYGASTRESGVPDRFTGSGSGTDFTLTISSVQAEDLAVYYCQNDHSYPYTFGGGTKLEIK
notes: VH of scFv77-2; 20-amino-acid flexible linker, printed as the formula [(G4S)4] and written out from it; VL of scFv77-2; Selected by ribosome display from a library of immunised mice; Apparent mass 26 kDa on the gel; The His-tag is named only for the Western blots of tissue after injection; Construct and methods are in the supplementary section; also called CCK-BR scFv 77-2; CCKBR scFv 77-2; …
In the case of B4, the Kd in assay [3] is 195 nM; in assay [5], 17.9 nM. For the same molecule, the koff in assay [4] was 0.000381 s⁻¹.

B5: CCK-BR_scFv93-1 (antibody, V domains shown)
VH: QVQLKESGPGLVAPSQSLSITCTVSGFSLTSYGVHWVRQPPGKGLEWLGVIWAGGSTNYNSALMSRLSISKDNSKSQVFLKMNSLQTDDTAMYYCARGLRGAMDYWGQGTSVTVSS
VL: DIVMTQSPSSLSVSAGEKVTMSCKSSQSLLASGNQNNYLAWHQQKPGRSPKMLIIWASTRESGVPDRFTGSGSGTDFTLTISSVQAEDVAVYYCQNDHSYPFTFGSGTKLEIK
As to B5, in assay [1], the binding result is reported as “binds”.

B6: CCK-BR_scFv8-3 (antibody, V domains shown)
VH: QVQLKESGAELAKPGASVKMSCKASGYTFTSYWMHWVKQRPGQGLEWIGYINPSTGYTEYNQKFKDKATLTADKSSSTAYMQLSSLTSEDSAVYYCARDYGSSFDYWGQGTTLTVSS
VL: DVVMTQTPLTLSVTIGQPASISCKSSQSLLDSGNQKNYLAWYQQKPGQPPKLLIYGASTRESGVPDRFTGSGSGTDFTLTISSVQAEDLAVYYCQNDHSYPYTFGGGTKLEIK
B6: the binding result in assay [1] is given as “binds”.

These data come from publication PMC10341521, “Rapid Generation and Molecular Docking Analysis of Single-Chain Fragment Variable (scFv) Antibody Selected by Ribosome Display Targeting Cholecystokinin B Receptor (CCK-BR) for Reduction of Chronic Neuropathic Pain” (International Journal of Molecular Sciences, 2023).
